According to patent US20190032060:

Columns and labels:
[1] = biological target: T1, Insulin receptor (extracellular domain) (Homo sapiens?) (UniProt P06213+P06213); test: FP; conditions: 6 Nap-dU stated (n positions) [n positions 3,4,10,14,16,20,24 = modified dU]; filter binding assay in fact (see method p97-p99); 200 mM HEPES, 510 mM NaCl, 25 mM KCl, 25 mM MgCl2, 37 C
[2] = biological target: Insulin receptor, endogenous on 3T3-L1 adipocytes (UniProt P15208+P15208); test: cell_activity; conditions: 6 Nap-dU (n positions) [n positions 8,10,11,21,23,27 = modified dU]; 2-deoxyglucose uptake, 4 h treatment
[3] = biological target: T1, Insulin receptor (extracellular domain); test: filter; conditions: 200 mM HEPES, 510 mM NaCl, 25 mM KCl, 25 mM MgCl2, 37 C

Sequence of Insulin receptor, endogenous on 3T3-L1 adipocytes (P15208 28-748, chain 1 of 2): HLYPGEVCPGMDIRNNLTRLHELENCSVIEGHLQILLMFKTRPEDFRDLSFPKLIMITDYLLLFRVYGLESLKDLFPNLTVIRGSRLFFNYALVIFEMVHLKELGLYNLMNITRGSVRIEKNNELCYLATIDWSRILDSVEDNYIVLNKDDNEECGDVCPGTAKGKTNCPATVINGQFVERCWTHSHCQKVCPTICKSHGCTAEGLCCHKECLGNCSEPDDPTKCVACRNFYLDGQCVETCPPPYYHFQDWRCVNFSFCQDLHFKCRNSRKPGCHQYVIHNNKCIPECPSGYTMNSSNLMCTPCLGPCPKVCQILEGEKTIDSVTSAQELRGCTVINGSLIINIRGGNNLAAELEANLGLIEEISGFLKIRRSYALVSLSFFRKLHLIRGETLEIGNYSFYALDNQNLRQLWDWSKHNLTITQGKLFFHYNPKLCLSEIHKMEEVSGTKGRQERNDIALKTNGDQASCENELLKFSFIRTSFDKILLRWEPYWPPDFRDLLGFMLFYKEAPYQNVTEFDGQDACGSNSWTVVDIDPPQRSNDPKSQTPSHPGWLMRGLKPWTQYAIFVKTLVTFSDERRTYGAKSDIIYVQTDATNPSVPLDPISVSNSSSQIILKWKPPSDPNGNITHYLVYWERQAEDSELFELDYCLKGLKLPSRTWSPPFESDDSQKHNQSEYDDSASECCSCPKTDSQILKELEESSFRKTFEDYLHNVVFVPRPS
Sequence of Insulin receptor, endogenous on 3T3-L1 adipocytes (P15208 753-1372, chain 2 of 2): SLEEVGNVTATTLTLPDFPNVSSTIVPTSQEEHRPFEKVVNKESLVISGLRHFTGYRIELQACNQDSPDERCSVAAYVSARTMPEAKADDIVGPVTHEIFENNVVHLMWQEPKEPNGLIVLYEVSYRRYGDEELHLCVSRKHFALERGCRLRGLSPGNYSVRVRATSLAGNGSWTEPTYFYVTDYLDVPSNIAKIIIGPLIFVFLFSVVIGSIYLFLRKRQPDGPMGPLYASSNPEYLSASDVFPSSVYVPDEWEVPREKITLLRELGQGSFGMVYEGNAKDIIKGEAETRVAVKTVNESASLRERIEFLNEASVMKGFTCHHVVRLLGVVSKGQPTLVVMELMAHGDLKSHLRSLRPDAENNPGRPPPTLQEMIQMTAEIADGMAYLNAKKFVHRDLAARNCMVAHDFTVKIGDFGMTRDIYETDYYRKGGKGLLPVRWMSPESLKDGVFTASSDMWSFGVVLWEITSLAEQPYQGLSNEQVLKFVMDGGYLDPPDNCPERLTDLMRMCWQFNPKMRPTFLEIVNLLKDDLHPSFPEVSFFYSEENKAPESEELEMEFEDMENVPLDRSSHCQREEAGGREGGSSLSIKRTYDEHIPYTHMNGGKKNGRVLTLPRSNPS

CATTACGCATGAGTCTAGATCCGTCAG [IR-A62]
Kd [1]: 2.4 nM

CGCCTGGTGTTAAGACAACCTCTAGGTCAGGCG [IR-A48]
EC50 [2]: 66.2 nM | Kd ([3]; 6 Nap-dU (n positions) [n positions 8,10,11,21,23,27 = modified dU]): 3.5 nM

TATGAGTGACCGTCCGCCTGGTGTTAAGACAACCTCTAGGTCAGGCGCAGTGACGGGTAGCAGCCACACCACCAGCCAAA [IR-A48F]
Kd ([3]; 8 Nap-dU in the variable region (n positions) [n positions 22,24,25,35,37,41,51,58 = modified dU]): 6.9 nM
